Experimental data published in US20250027068A1 (published 2025).
Numbering of substitutions follows the chain as printed.

Molecular target: pooled human IgG (human)
Test: cell-based or functional assay
Further: test concentration or dose not given here.

B1: PRT-194 (enzyme)
chain: MANQEIRYSEVTPYHVTSVWTKGVTPPDHDFANFTQGEDVFHAPYVANQGWYDITKTFNGKDDLLCGAATAGNMLHWWFDQNKDQIKRYLEEHPEKQKINFNGEQMFDVKEAIDTKNHQLDSKLFEYFKEKAFPYLSTKHLGVFPDHVIDMFINGYRLSLTNHGPTPVKEGSKDPRGGIFDAVFTRGDQSKLLTSRHDFKEKNLKEISDLIKKELTEGKALGLSHTYANVRHSINHVINLWGADFDSNGNLKAIYVTDSDDKKLTISNASIGMKKYFVGVNSAGKVAISAKEIKEDNIGAQVLGLFTLSTGQDSWNQTN
Question: B1 was tested. Which “Enzyme Activity Endpoint Assay (purified): Fab′2” value did it give?
Answer: 0 ng/µL

Question: And the “Enzyme Activity Endpoint Assay (purified): Fc” value?
Answer: 12 ng/µL

Question: And the “Enzyme Activity Endpoint Assay (purified): IgG” value?
Answer: 301 ng/µL

Question: What about the “Enzyme Activity Endpoint Assay (purified): scIgG” value of the same binder?
Answer: 0 ng/µL

B2: PRT-195 (enzyme)
chain: B1 chain with A32R, N33K, F34I, T35V, Q36D, S267G, N268D, A269E, S270R
Question: What does the source list for B2?
Answer: Enzyme Activity Endpoint Assay (purified): Fab′2: 0 ng/µL; Enzyme Activity Endpoint Assay (purified): Fc: 30 ng/µL; Enzyme Activity Endpoint Assay (purified): IgG: 829 ng/µL; Enzyme Activity Endpoint Assay (purified): scIgG: 15 ng/µL

B3: PRT-196 (enzyme)
chain: MEVVEVWPYGQNPNGKTEILSQTEDSESLQRLRDIEDFQAEKKMQNVVYTKWLDGVDVKDHDFRKIVDGNIAYYATPLLNGRGFYDINKDFNRDSDKCAAAVAANMFHYWLDINRDNVDRFLRQNPEKHGIIELPDGQLKLSDFLNTYESDHGYRDKSKLFDFISNNFNGPVWTDKLLDNYINGYAYNYKYGRTIEDPTKNTSKINFFKEVFNEKILTNNHSIRNQNEFSVLLSEALYTGKAIGLSYGPAGLRHSLGHIISVWGADLDADGNVVAIYVTDSDDKKLTIGDERVGLKRYKISTDDENRLRLTAYEETHNTGGQIRGLWTLDTGKYAWADYFDKTEQTGTDQAEQLEHHHHHH
Question: Which results are given for B3?
Answer: Enzyme Activity Endpoint Assay (purified): Fab′2: 152 ng/µL; Enzyme Activity Endpoint Assay (purified): Fc: 498 ng/µL; Enzyme Activity Endpoint Assay (purified): IgG: 707 ng/µL; Enzyme Activity Endpoint Assay (purified): scIgG: 504 ng/µL

B4: PRT-199 (enzyme)
chain: B3 chain with M44K, I113R, H152D, N306G, Y334Q
Question: Which results are given for B4?
Answer: Enzyme Activity Endpoint Assay (purified): Fab′2: 95 ng/µL; Enzyme Activity Endpoint Assay (purified): Fc: 473 ng/µL; Enzyme Activity Endpoint Assay (purified): IgG: 797 ng/µL; Enzyme Activity Endpoint Assay (purified): scIgG: 544 ng/µL

B5: PRT-202 (enzyme)
chain: B3 chain with M44K, H152Y, E210K, N220I, V231D, N306G, H317D, Q322E, W327Y, Y334Q
Question: With B5 as the binder, how does the “Enzyme Activity Endpoint Assay (purified): Fab′2” value read?
Answer: 25 ng/µL

Question: And the “Enzyme Activity Endpoint Assay (purified): Fc” value?
Answer: 402 ng/µL

Question: What about the “Enzyme Activity Endpoint Assay (purified): IgG” value of the same binder?
Answer: 1130 ng/µL

Question: And the “Enzyme Activity Endpoint Assay (purified): scIgG” value?
Answer: 553 ng/µL

B6: PRT-200 (enzyme)
chain: B3 chain with V231D, L308A, H317D, Y334Q
Question: What does the source list for B6?
Answer: Enzyme Activity Endpoint Assay (purified): Fab′2: 0 ng/µL; Enzyme Activity Endpoint Assay (purified): Fc: 0 ng/µL; Enzyme Activity Endpoint Assay (purified): IgG: 2510 ng/µL; Enzyme Activity Endpoint Assay (purified): scIgG: 0 ng/µL

B7: PRT-197 (enzyme)
chain: B3 chain with V231D, L308A, H317D, W327Y, Y334Q
Question: Which “Enzyme Activity Endpoint Assay (purified): Fab′2” value does the source give for B7 here?
Answer: 0 ng/µL

Question: What about the “Enzyme Activity Endpoint Assay (purified): Fc” value of the same binder?
Answer: 179 ng/µL

Question: And the “Enzyme Activity Endpoint Assay (purified): IgG” value?
Answer: 1800 ng/µL

Question: And the “Enzyme Activity Endpoint Assay (purified): scIgG” value?
Answer: 121 ng/µL

B8: PRT-198 (enzyme)
chain: B3 chain with M44K, N46G, V231D, W327Y, Y334Q
Question: Which results are given for B8?
Answer: Enzyme Activity Endpoint Assay (purified): Fab′2: 621 ng/µL; Enzyme Activity Endpoint Assay (purified): Fc: 0 ng/µL; Enzyme Activity Endpoint Assay (purified): IgG: 2320 ng/µL; Enzyme Activity Endpoint Assay (purified): scIgG: 0 ng/µL

B9: PRT-201 (enzyme)
chain: B3 chain with M44K, V67K, A72E, I113R, H152D, N306G, L308A, W327Y, Y334Q
Question: Which “Enzyme Activity Endpoint Assay (purified): Fab′2” value does the source give for B9 here?
Answer: 0 ng/µL

Question: And the “Enzyme Activity Endpoint Assay (purified): Fc” value?
Answer: 0 ng/µL

Question: What about the “Enzyme Activity Endpoint Assay (purified): IgG” value of the same binder?
Answer: 2720 ng/µL

Question: What about the “Enzyme Activity Endpoint Assay (purified): scIgG” value of the same binder?
Answer: 0 ng/µL
